In the RNAGym collection of RNA variant scans (doi:10.1073/pnas.2313332121):

B1: TPR t1 (parent)
chain: GACCAAUCUGCCCUCAGAGCUCGAGAACAUCUUCGGAUGCAGAGGAGGCAGGCUUCGGUGGCGCGAUAGCGCCAACGUCCUCAACCUCCAAUGCAUCCCACCACAUGAUGAUGCCUGAAGAGCCUUGGUUUUUUG

Variants of: B1
Assay: polymerase ribozyme fitness, log enrichment relative to wild type (log ratio); higher = more active; in vitro selection for triplet polymerase activity
How it was run: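 Mutant libraries were PCR-built and transcribed for each subunit of a heterodimeric triplet polymerase ribozyme and selected for one round in triplicate at −7 °C, frozen, before gel excision of extended constructs and streptavidin-bead capture. Input and output libraries were Illumina-sequenced, keeping genotypes with ≥10 input reads and ≥1 read per output. Fitness is a logarithmic ratio of genotype to wild-type enrichment, in base 2, using inverse-variance-weighted replicate averages.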

| Variant | polymerase ribozyme fitness (log ratio) |
| --- | --- |
| C31A G45U C115G | -6.15 |
| G69A G110C U129A | -7.59 |
| G45C U109C | -4.66 |
| A6G G10U A43C G71A | -4.79 |
| G63U G93U | -1.76 |
| C49G G93A U133A | -0.83 |
| C40U A46U C88U | -2 |
| G45U G120C | -0.784 |
| C4A A41C C64U | -1.54 |
| U81A U112G | -0.661 |
| C56G C62U U106A G110U | -0.758 |
| C12A G39C G47A A66U | -3.14 |
| C56U G93C | -0.768 |
| C12A G107C A119C G120A | -4.18 |
| C53G G63C | -1.3 |
| C28U U106A | -0.471 |
| U55G C56U A95U | -1.91 |
| C13U G51U G61A C88U U106A | -2.6 |
| C34A G48A U59C C101A | -5.32 |
| C80U C123A | -0.37 |
| C20U U33A | -5.51 |
| C31U C82U | -5.12 |
| C22A G51C C72A | -6.53 |
| C15G C22U A37G U38G G63C G110C | -5.93 |

| Variant | polymerase ribozyme fitness (log ratio) |
| --- | --- |
| C70A C124U | -0.369 |
| A27C C85U C123U | -3.3 |
| C12G U54C G61C | -2.85 |
| G93C | -0.928 |
| C12A G17U A43U | -4.46 |
| G69U A100U | -0.417 |
| A43U G63C G117C | -4.52 |
| A18C G39U C101A | -3.85 |
| A5C C13U A83G | -1.43 |
| C13U C56U A111G | 0.163 |
| G60A C124G | 1.59 |
| G42A G45U G57U C88U U130A | -3.68 |
| G19U C88A | -2.97 |
| G69A U78C A84C | -3.57 |
| C97U U116G | -2.81 |
| G65A C88U | -5.19 |
| C15U A24G A41G C73A C115U | -2.38 |
| A5C U9G | 0.0336 |
| G25U G47U | -6.74 |
| C11G C28U C56A G60A U78G | -4.9 |
| G36U G52A C97U G110A | -2.04 |
| C28U C31A C85G A119G G120A | -7.42 |
| G63A U106G | -2.57 |
| A27G C88A | -2.13 |

| Variant | polymerase ribozyme fitness (log ratio) |
| --- | --- |
| A16U C82A | -2.02 |
| U7A U14G G17C C82G C102A C114G | -5.18 |
| A29U C53U C56U G69U G93C | -3.98 |
| C11A A18U U21A C56U | -3.04 |
| G39U C76A U125G | -2.02 |
| G47U C85U | -1.98 |
| C20A G120C | -1.75 |
| A18C C56U U132A | -2.9 |
| A16C G45C U59A C72A U112C G135U | -4.45 |
| G36C C70G | -5.05 |
| C56U U109C | -2.15 |
| G52U G117A | -1.81 |
| C64U C72U U106G G127C | -2.97 |
| G69U G107A | -3.34 |
| C15U C56U U87G G113A U130A | -3.68 |
| C11G G117U G127U | -3.47 |
| C62U C114U | -1.82 |
| C72G U132A | -0.151 |
| G35A G52C C86U | -6.34 |
| U81G A118U | -2.58 |
| U9A U21G A41U G45A | -4.48 |
| G60A G117C A121U | -2.7 |
| C88A U96C | -0.897 |
| U9G G42A A105U | -4.37 |

| Variant | polymerase ribozyme fitness (log ratio) |
| --- | --- |
| G36U A118U | -1.08 |
| C85G C88U | -0.339 |
| C72U A83U | -1.1 |
| U9C C56U A83U G117A | 0.635 |
| G47A U54C G77A C82A G110A C123A | -3.8 |
| G71C C102U | -3.11 |
| A41C C62A C82U | -2.04 |
| G52A G69U G71U C102A | -4.53 |
| G17U A29G A37U U112G | -3.31 |
| C22G A41U G93U | -5.01 |
| C15U C72A A83C C89U C97U | -3.4 |
| C62U A95U C114U | -3.03 |
| A5U G127U | -2.48 |
| C8G C70G | -1.84 |
| G57C C85G C114U A119C | -6.42 |
| G47U C64A U116G C124U | -6.49 |
| C40U A84C U112A | 0.737 |
| U9G C70A G71A G127C | -4.46 |
| G61C A74C C85U | -5.35 |
| C79U A111U U112A C124A | 1.11 |
| C56A C70G C124A G127A | -2.78 |
| C22G C34U G60U C94A C97U C98G G113U | -6.85 |
| G44C C70G | -3.8 |
| G10U U78C | -0.395 |

| Variant | polymerase ribozyme fitness (log ratio) |
| --- | --- |
| U9A A74G C104A C123A | -0.249 |
| U9C C80G | -5.3 |
| C12U A18C A29G C82U U92A | -3.51 |
| U54G G57C | -1.44 |
| G61A G110A | -0.516 |
| C20A C53U C72G U126G | -3.99 |
| G69U C85G C99U A100C G110A | -5.56 |
| U7G C79U U81C C86U C88A U125A | -4.3 |
| U9G A41U U54A U78C | -1.59 |
| A2G G39U G57C A74U U112A C114G | -2.17 |
| C3U C11A C73G A75U C99G A103U A121G | -7.22 |
| G69U U96G | -0.302 |
| G10C A26C G120C G122A C123G G128A | -5.85 |
| G60U C104U | 0.494 |
| C13A U78A | -2.18 |
| A5U A29U G71A U78G C123A G128U | -4.18 |
| A37U G77C | -1.31 |
| A84U G93A C115G | -2.08 |
| A5U U131A | -2.48 |
| C34G C40U | -6.15 |
| A43U U87A G110A | -4.16 |
| C53U U78A A103U A121C U132C | -4.38 |
| C76U G117C | -3.98 |
| G44U U54A U55C | -2.01 |

| Variant | polymerase ribozyme fitness (log ratio) |
| --- | --- |
| G45A G69U U78C U112C U129A | 0.415 |
| C56A U132A | 0.197 |
| C3U U33G C53U U54A C73U U87A C124A | -4.16 |
| A29U G61C | -2.79 |
| G69A G93A A95C A121U | -3.33 |
| U78A U87G | -0.804 |
| U55C G58A G122A | -0.971 |
| C12G U55C C88A C104G G113A C123G C124A | -6.5 |
| G60A G63A C114U | -4.85 |
| C62U U87C | -0.408 |
| C11G G61A C64U G120U | -0.77 |
| C56U G65A A83U | -6.42 |
| G45A A95C A111U | -3.67 |
| A6U C15A G51C G71U C124U | -5.41 |
| C62A U81G | -5.64 |
| G71U C124U | 1.13 |
| A18U A68G U81A C123U | -5.83 |
| A5G C101A C115A | -0.823 |
| C114U C123U | -1.92 |
| C28U A83C | -2.54 |
| C8A C40U G61U U78A C80G A100C | -6.33 |
| C20U C62U U92A C97U | -5.74 |
| G69U C76U G93C U132C | -2.06 |
| C3U G48U G61C G65U G71A | -4.29 |

| Variant | polymerase ribozyme fitness (log ratio) |
| --- | --- |
| U14A C49U G60A A100U U106A | -3.83 |
| C40A C72A U81A A119U | -3.46 |
| C4A C70G G113A U116A | -6.73 |
| C72G G93A C101A A111U | -4.69 |
| A41U C89U G113U G117U | -5.95 |
| U59C G107A | -5.95 |
| A5C G23U G71C U112C U126A U131A | -4.82 |
| A18U G113U C114U C124A U130C | -2.93 |
| C4G C64U C115A C123A | -3.09 |
| U78C U109A G128A | -4.56 |
| A18U A24G C72U C73U | -4.35 |
| C12A C76U U106A | -1.29 |
| U9C C12A C86A C102A C104U C124A | -0.301 |
| C15U C72G | -1.64 |
| G71C C124G G128U | -1.25 |
| C56G A95G | -1.22 |
| U30G G48A C49U C62U C85A A121G | -6.22 |
| G39A A50G C79A | -2.95 |
| A37U G52A G61A A105G G127C | -4.21 |
| A43U U132A | -1.08 |
| C114G G135U | -2.93 |
| A5G C72G U87A A118U | -1.92 |
| G127C G128U U133A | -1.83 |
